Results as given in the DeepSol protein solubility set.

Assay: soluble on expression in E. coli; label from the status in PepcDB or PDB records

Soluble on expression in E. coli, soluble:
MKNNKIYLLGACLLCAVTTFAQNVSLQPPPQQLIVQNKTIDLPAVYQLNGGEEANPHAVKVLKELLSGKQSSKKGMLISIGEKGDKSVRKYSRQIPDHKEGYYLSVNEKEIVLAGNDERGTYYALQTFAQLLKDGKLPEVEIKDYPSVRYRGVVEGFYGTPWSHQARLSQLKFYGKNKMNTYIYGPKDDPYHSAPNWRLPYPDKEAAQLQELVAVANENEVDFVWAIHPGQDIKWNKEDRDLLLAKFEKMYQLGVRSFAVFFDNISGEGTNPQKQAELLNYIDEKFAQVKPDINQLVMCPTEYNKSWSNPNGNYLTTLGDKLNPSIQIMWTGDRVISDITRDGISWINERIKRPAYIWWNFPVSDYVRDHLLLGPVYGNDTTIAKEMSGFVTNPMEHAESSKIAIYSVASYAWNPAKYDTWQTWKDAIRTILPSAAEELECFAMHNSDLGPNGHGYRREESMDIQPAAERFLKAFKEGKNYDKADFETLQYTFERMKESADILLMNTENKPLIVEITPWVHQFKLTAEMGEEVLKMVEGRNESYFLRKYNHVKALQQQMFYIDQTSNQNPYQPGVKTATRVIKPLIDRTFATVVKFFNQKFNAHLDATTDYMPHKMISNVEQIKNLPLQVKANRVLISPANEVVKWAAGNSVEIELDAIYPGENIQINFGKDAPCTWGRLEISTDGKEWKTVDLKQKESRLSAGLQKAPVKFVRFTNVSDEEQQVYLRQFVLTIEKK
MKNTSRDTVVMSWWDFGHLFAVAADRPVTFDGGSQNTPRAYWIGKALTTSNETLSRGILTMLSTSGDLAYETLDNYTDDSGKTAEILTATLGLPREEARAVMTGRYGLSDKEADSVLRYSHPAKPKPFVLVLSSDMLGKAPWWTYFGTWDFKKKTGSRYGYYPSLEHHHHHH
MKPFLSACLIVKNEEEMLGKCLESLRRVIEEIIVVDTGSTDSTKEIARQFTDKVYDFEWMNDFSEARNFAASKANGEWIIAIDADECVDPDNFKEAIKEIKFHQNKFNMYLVEITSFSGALGENTTVNQMPRIYVNDGTICYKRAIHEQLEAVEGGLRVSLSSLKVYHYGYLSNVVVKQDKKS
MKPHALIGLLAGMLLSSSLYAADSTKPLPLHIGGRVLVESPANQPVSYTYSWPAVYFETAFKGQSLTLKFDDDQNIFRLIVDDKAPVVINKPGKVDYPVESLAPGKHRVRLEKLTETQSTSGRFLGFYTDPSAKPLALPKRKRQIEFIGDSFTVGYGNTSPSRECTDEELFKTTNSQMAFGPLTAKAFDADYQINASSGFGIVRNYNGTSPDKSLLSLYPYTLNNPDQLYHNKHWKPQVIVIGLGTNDFSTALNDNERWKTREALHADYVANYVKFVKQLHSNNARAQFILMNSDQSNGEIAEQVGKVVAQLKGGGLHQVEQIVFKGLDYSGCHWHPSANDDQLLANLLITHLQQKKGIWLEHHHH

Soluble on expression in E. coli, not soluble:
MKNRIIAAGVIAASILSYSSSSFAQTKTFPDVQTGHWAEDSINYLAEKGAVTGNEKGMFEPGKEITRAEAATMMAKILNLPIDKNAKPSYADSQKHWATPIIAAVEKAGVVKGTGNGFEPDGKIDRVSMASLLVEAYKLESKVNGTPATKFKDLETLNWGKEKANILVELGISVGTGDKWEPKKILTKAEAAQFIKKADSLKVGNPLVEKVVIIDPGHGGFDPGNPGQGVEESKIVFDTSLRLQKLLEKNTPLKALLTREENGNPGSNKNESLANRVKFGQENNADIFVSIHANSSEKHDGHGTETYYYKKSKRGEETQIEKDSEVLAKKIQNRVVEALHTRDRKIKDDHSLYVVNNNTVPAVLTELAFIDNDIDNGKLATESGRQIAAEAVYAGILDYYEWKGFDVSKYRLAK
MKNVKTIAAAVVLATMTFGASAAEYVSPSQAQNLEKAGVVTATAQDLSSLQSQLAAKAEKAGAKAYTITSATGNDQLRGSAVIFN
MKPLRSPWVMRALARFFSGYIALTYKTLRWTREGQAIADRVQAEALASGGGAILALWHSRVPVGPATWPQGPDKPEIRVLVSQSRDGEFIARVIARLGLPSIRGSSLKKTDTAKNKGGEQAFRDMVKWVKDGGAMAITPDGPRGPVEVMQKGAVALARVSGAPVLFVGVAVNPCIRLKTWDRTIIPLPFAKAAMVWDGPVHAGRDDDPDAVVEAWGARLSAVSRRAEAIVGETPPKDLEHHHHHH
